{"source": "paper PMC7775534", "biological_target": "T1, DR_1836 (DrSRP protein, Ffh homolog) (Deinococcus radiodurans R1 (ATCC 13939)) (UniProt Q9RTC9)", "T1 sequence": "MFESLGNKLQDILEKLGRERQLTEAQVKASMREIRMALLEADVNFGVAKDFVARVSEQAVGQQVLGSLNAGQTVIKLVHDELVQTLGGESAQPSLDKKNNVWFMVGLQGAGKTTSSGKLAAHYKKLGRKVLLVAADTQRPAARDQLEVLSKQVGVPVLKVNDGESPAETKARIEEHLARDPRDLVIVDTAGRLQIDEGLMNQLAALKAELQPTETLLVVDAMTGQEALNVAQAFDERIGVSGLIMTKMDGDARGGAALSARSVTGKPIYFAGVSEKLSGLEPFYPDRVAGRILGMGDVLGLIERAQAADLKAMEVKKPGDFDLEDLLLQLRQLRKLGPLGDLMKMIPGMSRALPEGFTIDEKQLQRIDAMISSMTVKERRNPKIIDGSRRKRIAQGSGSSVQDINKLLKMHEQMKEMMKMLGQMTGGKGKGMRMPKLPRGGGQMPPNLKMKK", "assay": "EMSA", "conditions": "20 mM Tris-HCl pH 8.0, 1 mM MgCl2, 20 mM KCl, 10 mM Na phosphate pH 8.0, 10% glycerol, 0.2 mM DTT, 37 C 1 h; 4% native PAGE, 0.5x TBE, 4 C"}
{"sequence": "GGGAGACGCCAGACGUAGGGCAGUACCCCCUUCUCUGCACAGCGCCCGCAACUGUGCUACCAUCCUUCCCGCAUUGCUGGUGCAGCGCAGCGCGGACGCCCGAACCUGGUCAGAGCCGGAAGGCAGCAGCCAUAAGGGAUGCUUUGCGGGUGCCGUUGCCUUCCGGCAAUGCUUUUUUCGUCUCUCCUCGGGGUCGCUUACGGGCGGCCCUGUUUUGUUGUGCUUAGAGCAAUUGACAGAA [Qpr6 (SRP RNA)]", "values": [{"measurement": "binding", "result": "binds"}]}
